Experiments:
Assay in all cases: cell-based or functional assay
[1] = target: HIV-1 Env pseudovirus 191084 B7-19 (HIV-1)
[2] = target: HIV-1 Env pseudovirus 211-9 (HIV-1)
[3] = target: HIV-1 Env pseudovirus 6041.v3.c23 (HIV-1)
[4] = target: HIV-1 Env pseudovirus 6540.v4.c1 (HIV-1)
[5] = target: HIV-1 Env pseudovirus 6811.v7.c18 (HIV-1)
[6] = target: HIV-1 Env pseudovirus BJOX009000.02.4 (HIV-1)
[7] = target: HIV-1 Env pseudovirus BJOX010000.06.2 (HIV-1)
[8] = target: HIV-1 Env pseudovirus BJOX028000.10.3 (HIV-1)
[9] = target: HIV-1 Env pseudovirus C2101.c01 (HIV-1)
[10] = target: HIV-1 Env pseudovirus X2131_C1_B5 (HIV-1)
[11] = target: HIV-1 Env of pseudovirus 1006_11_C3_1601 (clade B (T/F)) (HIV-1)
[12] = target: HIV-1 Env of pseudovirus 6535.3 (clade B) (HIV-1)
[13] = target: HIV-1 Env of pseudovirus 7030102001E5(Rev-) (clade C (T/F)) (HIV-1)
[14] = target: HIV-1 Env of pseudovirus CAP45.2.00.G3 (clade C) (HIV-1)
[15] = target: HIV-1 Env of pseudovirus CNE17 (clade BC) (HIV-1)
[16] = target: HIV-1 Env of pseudovirus Ce0682_E4 (clade C (T/F)) (HIV-1)
[17] = target: HIV-1 Env of pseudovirus Ce1086_B2 (clade C (T/F)) (HIV-1)
[18] = target: HIV-1 Env of pseudovirus Ce1172_H1 (clade C (T/F)) (HIV-1)
[19] = target: HIV-1 Env of pseudovirus Ce1176_A3 (clade C (T/F)) (HIV-1)
[20] = target: HIV-1 Env of pseudovirus Ce703010054_2A2 (clade C (T/F)) (HIV-1)
[21] = target: HIV-1 Env of pseudovirus Ce704809221_1B3 (clade C (T/F)) (HIV-1)
[22] = target: HIV-1 Env of pseudovirus Du172.17 (clade C) (HIV-1)
[23] = target: HIV-1 Env of pseudovirus Du422.1 (clade C) (HIV-1)
[24] = target: HIV-1 Env of pseudovirus HIV-16845-2.22 (clade C) (HIV-1)
[25] = target: HIV-1 Env of pseudovirus Q769.d22 (clade A) (HIV-1)
[26] = target: HIV-1 Env of pseudovirus THRO4156.18 (clade B) (HIV-1)
[27] = target: HIV-1 Env of pseudovirus TRJO4551.58 (clade B) (HIV-1)
[28] = target: HIV-1 Env of pseudovirus WITO4160.33 (clade B) (HIV-1)
[29] = target: HIV-1 Env of pseudovirus ZM249M.PL1 (clade C) (HIV-1)

N49P9 (antibody)
IC50 [1]: 0.042 µg/mL
IC80 [1]: 0.129 µg/mL
MPI [1]: 100
IC50 [2]: 0.136 µg/mL
IC80 [2]: 0.485 µg/mL
MPI [2]: 100
IC50 [3]: 0.089 µg/mL
IC80 [3]: 0.777 µg/mL
MPI [3]: 95
IC50 [4]: > 50 µg/mL
IC80 [4]: > 50 µg/mL
MPI [4]: 49
IC50 [5]: 0.249 µg/mL
IC80 [5]: 1.2 µg/mL
MPI [5]: 99
IC50 [6]: 0.727 µg/mL
IC80 [6]: 3.29 µg/mL
MPI [6]: 100
IC50 [7]: 0.482 µg/mL
IC80 [7]: 2.34 µg/mL
MPI [7]: 100
IC50 [8]: 0.031 µg/mL
IC80 [8]: 0.134 µg/mL
MPI [8]: 100
IC50 [9]: 0.051 µg/mL
IC80 [9]: 0.209 µg/mL
MPI [9]: 100
IC50 [10]: 0.082 µg/mL
IC80 [10]: 0.274 µg/mL
MPI [10]: 100

N49P9.1 (antibody)
IC50 [1]: 0.097 µg/mL
IC80 [1]: 0.259 µg/mL
MPI [1]: 100
IC50 [2]: 0.17 µg/mL
IC80 [2]: 0.579 µg/mL
MPI [2]: 100
IC50 [3]: 0.282 µg/mL
IC80 [3]: 6.78 µg/mL
MPI [3]: 90
IC50 [4]: > 50 µg/mL
IC80 [4]: > 50 µg/mL
MPI [4]: 30
IC50 [5]: 0.398 µg/mL
IC80 [5]: 1.76 µg/mL
MPI [5]: 97
IC50 [6]: 0.965 µg/mL
IC80 [6]: 3.93 µg/mL
MPI [6]: 100
IC50 [7]: 0.883 µg/mL
IC80 [7]: 4.26 µg/mL
MPI [7]: 100
IC50 [8]: 0.04 µg/mL
IC80 [8]: 0.2 µg/mL
MPI [8]: 100
IC50 [9]: 0.085 µg/mL
IC80 [9]: 0.227 µg/mL
MPI [9]: 100
IC50 [10]: 0.143 µg/mL
IC80 [10]: 0.476 µg/mL
MPI [10]: 100

N49P11 (antibody)
IC50 [11]: 0.125 µg/mL
IC80 [11]: 0.487 µg/mL
MPI [11]: 100
IC50 [12]: 8.22 µg/mL
IC80 [12]: 17.2 µg/mL
MPI [12]: 100
IC50 [13]: 0.635 µg/mL
IC80 [13]: 2.29 µg/mL
MPI [13]: 100
IC50 [14]: 5.25 µg/mL
IC80 [14]: 24 µg/mL
MPI [14]: 100
IC50 [15]: 6.68 µg/mL
IC80 [15]: 25.6 µg/mL
MPI [15]: 100
IC50 [16]: 0.091 µg/mL
IC80 [16]: 0.387 µg/mL
MPI [16]: 100
IC50 [17]: 2.19 µg/mL
IC80 [17]: 11.7 µg/mL
MPI [17]: 100
IC50 [18]: 3.55 µg/mL
IC80 [18]: 19.2 µg/mL
MPI [18]: 100
IC50 [19]: 0.946 µg/mL
IC80 [19]: 6.05 µg/mL
MPI [19]: 100
IC50 [20]: 1.42 µg/mL
IC80 [20]: 7.51 µg/mL
MPI [20]: 100
IC50 [21]: 0.644 µg/mL
IC80 [21]: 3.3 µg/mL
MPI [21]: 100
IC50 [22]: 5.65 µg/mL
IC80 [22]: 17.9 µg/mL
MPI [22]: 100
IC50 [23]: 8.81 µg/mL
IC80 [23]: 21.2 µg/mL
MPI [23]: 100
IC50 [24]: 1.72 µg/mL
IC80 [24]: 8.15 µg/mL
MPI [24]: 100
IC50 [25]: 0.048 µg/mL
IC80 [25]: 0.308 µg/mL
MPI [25]: 100
IC50 [26]: 1.84 µg/mL
IC80 [26]: 10.4 µg/mL
MPI [26]: 100
IC50 [27]: 0.183 µg/mL
IC80 [27]: 0.656 µg/mL
MPI [27]: 100
IC50 [28]: 4.86 µg/mL
IC80 [28]: 13.2 µg/mL
MPI [28]: 100
IC50 [29]: 3.64 µg/mL
IC80 [29]: 17.4 µg/mL
MPI [29]: 100

N49P18.1 (antibody)
IC50 [11]: 2.8 µg/mL
IC80 [11]: 9.66 µg/mL
MPI [11]: 99
IC50 [12]: 2.06 µg/mL
IC80 [12]: 11.4 µg/mL
MPI [12]: 100
IC50 [13]: 6.35 µg/mL
IC80 [13]: 17.7 µg/mL
MPI [13]: 98
IC50 [14]: 5.14 µg/mL
IC80 [14]: 33.1 µg/mL
MPI [14]: 88
IC50 [15]: 39.7 µg/mL
IC80 [15]: > 50 µg/mL
MPI [15]: 56
IC50 [16]: 3.95 µg/mL
IC80 [16]: 21.1 µg/mL
MPI [16]: 96
IC50 [17]: 8.98 µg/mL
IC80 [17]: 48 µg/mL
MPI [17]: 92
IC50 [18]: 46.4 µg/mL
IC80 [18]: > 50 µg/mL
MPI [18]: 52
IC50 [19]: 32.5 µg/mL
IC80 [19]: > 50 µg/mL
MPI [19]: 61
IC50 [20]: 4.15 µg/mL
IC80 [20]: 11.6 µg/mL
MPI [20]: 98
IC50 [21]: 41.6 µg/mL
IC80 [21]: > 50 µg/mL
MPI [21]: 59
IC50 [22]: 6.52 µg/mL
IC80 [22]: 21.3 µg/mL
MPI [22]: 92
IC50 [23]: 21.5 µg/mL
IC80 [23]: > 50 µg/mL
MPI [23]: 75
IC50 [24]: > 50 µg/mL
IC80 [24]: > 50 µg/mL
MPI [24]: 23
IC50 [25]: 4.92 µg/mL
IC80 [25]: 18.3 µg/mL
MPI [25]: 97
IC50 [26]: > 50 µg/mL
IC80 [26]: > 50 µg/mL
MPI [26]: 19
IC50 [27]: 4.44 µg/mL
IC80 [27]: 14.7 µg/mL
MPI [27]: 99
IC50 [28]: 11 µg/mL
IC80 [28]: 37.6 µg/mL
MPI [28]: 87
IC50 [29]: 4.16 µg/mL
IC80 [29]: 19.8 µg/mL
MPI [29]: 98

N49P19 (antibody)
IC50 [1]: 0.357 µg/mL
IC80 [1]: 1.34 µg/mL
MPI [1]: 100
IC50 [2]: 3.23 µg/mL
IC80 [2]: 19 µg/mL
MPI [2]: 93
IC50 [3]: > 50 µg/mL
IC80 [3]: > 50 µg/mL
MPI [3]: 32
IC50 [4]: 11.2 µg/mL
IC80 [4]: > 50 µg/mL
MPI [4]: 63
IC50 [5]: 1.3 µg/mL
IC80 [5]: 4.71 µg/mL
MPI [5]: 97
IC50 [6]: 3.66 µg/mL
IC80 [6]: 25.6 µg/mL
MPI [6]: 87
IC50 [7]: 4.16 µg/mL
IC80 [7]: 19.1 µg/mL
MPI [7]: 96
IC50 [8]: 7 µg/mL
IC80 [8]: > 50 µg/mL
MPI [8]: 80
IC50 [9]: 0.978 µg/mL
IC80 [9]: 4.19 µg/mL
MPI [9]: 100
IC50 [10]: 2.52 µg/mL
IC80 [10]: 14.4 µg/mL
MPI [10]: 91

Source: patent US20230002480A1
